The target in experiment [1] is T1, hGP130-his (Sino Biological, Catalog #10974) (human, UniProt P40189 23-619).
T1 construct: Bought his-tagged cytokine receptor used as SPR analyte; also called human gp130 receptor subunit; IL6 receptor beta subunit; not shown: his tag
T1 sequence: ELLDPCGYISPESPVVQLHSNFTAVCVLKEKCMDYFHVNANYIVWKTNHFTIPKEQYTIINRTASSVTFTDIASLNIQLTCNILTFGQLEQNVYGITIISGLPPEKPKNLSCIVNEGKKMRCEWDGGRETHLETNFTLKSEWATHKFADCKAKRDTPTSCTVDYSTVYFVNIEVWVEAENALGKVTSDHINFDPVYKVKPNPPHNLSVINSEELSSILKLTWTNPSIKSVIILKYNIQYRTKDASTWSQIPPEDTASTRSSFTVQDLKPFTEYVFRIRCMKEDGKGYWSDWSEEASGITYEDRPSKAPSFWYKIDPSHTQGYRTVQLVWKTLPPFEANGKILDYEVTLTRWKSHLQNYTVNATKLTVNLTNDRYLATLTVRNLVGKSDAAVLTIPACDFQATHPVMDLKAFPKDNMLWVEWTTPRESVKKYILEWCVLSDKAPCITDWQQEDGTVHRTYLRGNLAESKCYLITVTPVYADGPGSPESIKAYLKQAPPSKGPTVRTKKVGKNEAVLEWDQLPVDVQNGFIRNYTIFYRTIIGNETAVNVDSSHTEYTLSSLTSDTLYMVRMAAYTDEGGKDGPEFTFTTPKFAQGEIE
The experiment is described as follows: SPR Biacore T200; ratio experimental/calculated Rmax. The procedure: (§1) All experiments were conducted in 10 mM Hepes, 150 mMv NaCl, 0.05% (v/v) Polysorbate 20 (PS20) and 3 mMv EDTA (HBS-EP+ buffer) on a Biacore® T200 instrument equipped with a Protein A chip (Cytiva). Mono-Fc VHH ligands were flowed at 5 μl/min for variable time ranging from 18 to 300 seconds, reaching the capture loads listed in the tables below.
(§2) Following ligand capture, injections of a 2-fold dilution series of his-tagged cytokine receptors typically comprising at least five concentrations between 1 μM and 1 nM were performed in either high performance or single cycle kinetics mode. Surface regeneration was achieved by flowing 10 mMv glycine-HCl, pH 1.5 (60 seconds, 50 μL/min). Buffer-subtracted sensograms were processed with Biacore® T200 Evaluation Software and globally fit with a 1:1 Langmuir binding model (bulk shift set to zero) to extract kinetics and affinity constants (ka, kd, KD). RMAX<100 RU indicates surface density compatible with kinetics analysis. Calculated Rmax were generated using the equation Rmax=Load (RU)×valency of ligand×(Molecular weight of analyte/Molecular weight of ligand. Surface activity was defined as the ratio experimental/calculated Rmax. See tables below for sample information and experimental results.

The target of experiment [2] is T1, hGP130-his (Sino Biological, Catalog …). Nature of the experiment: SPR Biacore T200, hgp130 arm. The protocol: as §1, §2
Experiment [3] has the same target. Nature of the experiment: SPR Biacore T200; mono-Fc VHH on Protein A chip, hGP130-his analyte. The procedure:
as §1, §2

Experiment [4] addresses T2, hIL27Ra-his (Origene, Catalog #TP307012) (human, UniProt Q6UWB1 33-516, limits assumed).
T2 construct: Bought his-tagged cytokine receptor used as SPR analyte; also called human IL27 receptor subunit alpha; not shown: his tag
T2 sequence: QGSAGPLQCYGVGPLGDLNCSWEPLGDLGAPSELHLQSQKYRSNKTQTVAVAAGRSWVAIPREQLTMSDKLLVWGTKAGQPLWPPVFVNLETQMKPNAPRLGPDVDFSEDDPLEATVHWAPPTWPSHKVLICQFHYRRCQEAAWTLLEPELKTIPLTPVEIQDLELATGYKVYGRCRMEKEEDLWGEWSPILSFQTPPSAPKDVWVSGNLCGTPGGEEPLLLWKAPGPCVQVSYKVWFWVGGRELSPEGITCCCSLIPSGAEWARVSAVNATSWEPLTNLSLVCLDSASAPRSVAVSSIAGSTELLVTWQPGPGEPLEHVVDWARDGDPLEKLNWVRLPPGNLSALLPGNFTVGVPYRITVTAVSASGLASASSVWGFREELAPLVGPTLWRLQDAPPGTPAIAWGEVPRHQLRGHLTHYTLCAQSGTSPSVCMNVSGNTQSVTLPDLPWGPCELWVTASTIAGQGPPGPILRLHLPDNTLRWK
Nature of the experiment: SPR Biacore T200, hIL27Ra arm.

Experiment [5] concerns the target T2, hIL27Ra-his (Origene, Catalog #TP307012). Nature of the experiment: SPR Biacore T200; ratio experimental/calculated Rmax. The procedure: as §1, §2
The target is the same in experiment [6]. Nature of the experiment: SPR Biacore T200; mono-Fc VHH on Protein A chip, hIL27Ra-his analyte. The protocol: as §1, §2
On the technique in general: SPR reads the build-up and loss of mass on a sensor chip optically.

Consider 14 molecules from patent US20240002542A1 (SYNTHEKINE, published 2024).

As a reminder, the Kd is the free concentration of one partner at which half of the binding sites on the other are occupied at equilibrium, for simple one-to-one binding. As a reminder, the koff is a measure of how fast the partners let go of each other. High values mean fast dissociation, low ones slow dissociation. Broadly, the kon is the second-order rate constant of association.

B1: 19-DR596 (SEQ ID NO. 237), anti-hGP130 Mono-Fc VHH (Fc fusion)
chain: QVQLQESGGGLVQPGGSLRLSCTASGLTFDDSVMGWFRQAPGKGREAVSCISSSGANAFYADSVKGRFTISRDNAKNTLYLQMNSLKPEDTATYYCKRGHACAGYYPIPYDDYWGQGTQVTVSS
notes: Mono-Fc VHH ligand captured on a Protein A chip; not shown: mono-Fc part
Consider B1, for which the “Surface Activity” value in experiment [1] is 28%. For the same molecule, in experiment [2], the Kd worked out at 44 nM, the dissociation rate constant (koff) is 0.0082 s⁻¹ and the kon was determined as 190000 M⁻¹ s⁻¹. In experiment [3], the affinity, expressed as Kd, was 44 nM; the off-rate constant (koff) was 0.0082 s⁻¹; the association rate constant (kon) was 190000 M⁻¹ s⁻¹.

B2: 14-DR591 (SEQ ID NO. 232), anti-hGP130 Mono-Fc VHH (Fc fusion)
chain: QVQLQESGGGSVQAGGSLRLSCTASGAIASGYIDSRWCMAWFRQAPGKEREGVAAIWPGGGLTVYADSVKGRFTISRDHAKNTLYLQMNNLKPEDTAMYYCAAGSPRMCPSLEFGFDYWGQGTQVTVSS
notes: Tested as Mono-Fc VHH ligand captured on a Protein A chip; not shown: mono-Fc part
As to B2, in experiment [1], the “Surface Activity” value was 21%. Moreover, in experiment [2], the affinity, expressed as Kd, was 33 nM; the koff is 0.0019 s⁻¹; the kon was 59000 M⁻¹ s⁻¹. Further, in experiment [3], the affinity, expressed as Kd, was 33 nM; the dissociation rate constant (koff) stood at 0.0019 s⁻¹; the kon amounted to 59000 M⁻¹ s⁻¹.

B3: hIL27Ra_VHH15 (VHH)
VHH: QVQLQESGGGSVQAGGSLRLSCVASGYVSCDYFLPSWYRQAPGKEREFVSIIDGTGSTSYAASVKGRFTASQDKGKNIAYLQMNTLKPEDTAMYYCKASCVRGRAISEYWGQGTQVTVSS
In experiment [4], B3 registered a dissociation constant Kd of 17 nM, a koff of 0.001 s⁻¹ and a kon of 59000 M⁻¹ s⁻¹.

B4: 24-DR601 (SEQ ID NO. 249), anti-hIL27Ra Mono-Fc VHH (Fc fusion)
chain: QVQLQESGGGSVQAGGSLRLSCVASGYVSCDYFLPSWYRQAPGKEREFVSIIDGTGSTSYAASVKGRFTASQDKGKNIAYLQMNTLKPEDTAMYYCKASCVRGRAISEYWGQGTQVTVSS
notes: as for B1
Take B4: the “Surface Activity” value in experiment [5] was 12%. Moreover, in experiment [6], the Kd was found to be 4.5 nM, the koff turned out to be 0.00041 s⁻¹ and the kon worked out at 91000 M⁻¹ s⁻¹.

B5: hIL27Ra_VHH21 (VHH)
VHH: QVQLQESGGGLVQPGGSLRLSCAASGFTFSLSSMSWVRQAPGKGLEWVSAISSGGASTYYTDSVKGRFTISRDNAKNMLYLQLNSLKTEDTAMYYCAKGGSGYGDASRMTSPGSQGTQVTVSS
In experiment [4], B5 had a Kd of 6.1 nM, a koff of 0.00077 s⁻¹ and an on-rate (kon) of 130000 M⁻¹ s⁻¹.

B6: hIL27Ra_VHH9 (VHH)
VHH: QVQLQESGGGSVQSGGSLRLSCAASGFTYSTSNSWMAWFRQAPGKEREGVAAIYTVGGSIFYADSVRGRFTISQDATKNMFYLQMNTLKPEDTAMYYCAAASGRLRGKWFWPYEYNYWGQGTQVTVSS
For the molecule B6, in experiment [4], binding was put at a Kd of 4.5 nM, the dissociation rate constant (koff) is 0.00041 s⁻¹ and the kon was found to be 91000 M⁻¹ s⁻¹.

B7: 23-DR600 (SEQ ID NO. 248), anti-hIL27Ra Mono-Fc VHH (Fc fusion)
chain: QVQLQESGGGSVQSGGSLRLSCAASGFTYSTSNSWMAWFRQAPGKEREGVAAIYTVGGSIFYADSVRGRFTISQDATKNMFYLQMNTLKPEDTAMYYCAAASGRLRGKWFWPYEYNYWGQGTQVTVSS
notes: as for B1
Consider B7, for which the “Surface Activity” value in experiment [5] is 13%. In experiment [6], the Kd was 17 nM, the off-rate constant (koff) came to 0.001 s⁻¹ and the kon stood at 59000 M⁻¹ s⁻¹.

B8: hIL27Ra_VHH19 (VHH)
VHH: QVQLQESGGGSVQAGGSLRLSCRASGSTYSNYCLGWFRQITGKEREGVAVINWVGGMLYFADSVKGRFTVSQDQAKNTVYLQMNSLKPEDTAMYYCAAESVSSFSCGGWLTRPDRVPYWGQGTQVTVSS
In experiment [4], B8 yielded a Kd of 5.2 nM, a koff of 0.00076 s⁻¹ and an association rate constant (kon) of 150000 M⁻¹ s⁻¹.

B9: 18-DR595 (SEQ ID NO. 236), anti-hGP130 Mono-Fc VHH (Fc fusion)
chain: QVQLQESGGGSVQAGGSLTLSCAASEYAYSTCNMGWYRQAPGKERELVSAFISDGSTYYADSVKGRFTITRDNAKNTVYLQMNSLKPEDTAIYYCSANCYRRLRNYWGQGTQVTVSS
notes: as for B1
Turning to B9, the “Surface Activity” value in experiment [1] is 33%. In experiment [2], this molecule showed a dissociation constant (Kd) of 41 nM, a koff of 0.0073 s⁻¹ and an on-rate (kon) of 180000 M⁻¹ s⁻¹. Further, in experiment [3], the dissociation constant Kd is 41 nM, the off-rate constant (koff) came to 0.0073 s⁻¹ and the on-rate (kon) worked out at 180000 M⁻¹ s⁻¹.

B10: 17-DR594 (SEQ ID NO. 235), anti-hGP130 Mono-Fc VHH (Fc fusion)
chain: QVQLQESGGGSVQAGGSLRLSCVASASTYCTYDMHWYRQAPGKGREFVSAIDSDGTTRYADSVKGRFTISQGTAKNTVYLQMNSLQPEDTAMYYCKTVCVVGSRWSDYWGQGTQVTVSS
notes: as for B1
Turning to B10, the “Surface Activity” value in experiment [1] was 21%. In experiment [2], this molecule showed a Kd of 58 nM, an off-rate (koff) of 0.0095 s⁻¹ and an association rate constant (kon) of 160000 M⁻¹ s⁻¹. In experiment [3], this molecule registered a Kd of 58 nM, an off-rate constant (koff) of 0.0095 s⁻¹ and a kon of 160000 M⁻¹ s⁻¹.

B11: 16-DR593 (SEQ ID NO. 234), anti-hGP130 Mono-Fc VHH (Fc fusion)
chain: QVQLQESGGGSVQAGGSLRLSCAASGYPYSNGYMGWFRQAPGKEREGVATIYTGDGRTYYADSVKGRFTISRDNAKNTVDLQMSSLKPEDTAMYYCAARAAPLYSSGSPLTRARYNVWGQGTQVTVSS
notes: as for B1
Consider B11, for which the “Surface Activity” value in experiment [1] was 20%. In experiment [2], this molecule displayed a dissociation constant (Kd) of 82 nM, a koff of 0.021 s⁻¹ and a kon of 250000 M⁻¹ s⁻¹. In experiment [3], this molecule displayed a dissociation constant (Kd) of 82 nM, an off-rate (koff) of 0.021 s⁻¹ and an on-rate (kon) of 250000 M⁻¹ s⁻¹.

B12: hIL27Ra_VHH1 (VHH)
VHH: QVQLQESGGGLVQPGGSLRLSCAASGFTFSSYPMSWVRQAPGKGLEWISTISAGGDTTLYADSVKGRFTSSRDNAKNTLYLQLNSLKTEDAAIYYCAKRIDCNSGYCYRRNYWGQGTQVTVSS
In experiment [4], B12 came in with a Kd of 19 nM, a koff of 0.00057 s⁻¹ and a kon of 30000 M⁻¹ s⁻¹.

B13: 20-DR597 (SEQ ID NO. 245), anti-hIL27Ra Mono-Fc VHH (Fc fusion)
chain: QVQLQESGGGLVQPGGSLRLSCAASGFTFSSYPMSWVRQAPGKGLEWISTISAGGDTTLYADSVKGRFTSSRDNAKNTLYLQLNSLKTEDAAIYYCAKRIDCNSGYCYRRNYWGQGTQVTVSS
notes: as for B1
B13: the “Surface Activity” value in experiment [5] was 4%. In experiment [6], this molecule returned a Kd of 19 nM, a koff of 0.00057 s⁻¹ and an association rate constant (kon) of 30000 M⁻¹ s⁻¹.

B14: 15-DR592 (SEQ ID NO. 233), anti-hGP130 Mono-Fc VHH (Fc fusion)
chain: QVQLQESGGGSVQAGGSLRLSCTAPGFTSNSCGMDWYRQAPGKEREFVSSISTDGTTGYADSVKGRFTISKDKAKDTVYLQMNSLKPEDTGMYSCKTKDGTIATMELCDFGYWGQGTQVTVSS
notes: as for B1
B14: the “Surface Activity” value in experiment [1] was 33%. In experiment [2], the Kd came out at 38 nM, the off-rate constant (koff) was 0.0059 s⁻¹ and the kon came to 160000 M⁻¹ s⁻¹. Also, in experiment [3], the Kd amounted to 38 nM, the koff was found to be 0.0059 s⁻¹ and the association rate constant (kon) is 160000 M⁻¹ s⁻¹.
